Measured values published in PMC9843812, “The ybcF Gene of Escherichia coli Encodes a Local Orphan Enzyme, Catabolic Carbamate Kinase” (Journal of Microbiology and Biotechnology, 2022).

How the values were obtained:
[1] = substrate: Nc1ncnc2c1ncn2[C@@H]1O[C@H](COP(=O)(O)OP(=O)(O)O)[C@@H](O)[C@H]1O; experiment: ATP formation measured by firefly luciferase luminescence, Michaelis-Menten / Lineweaver-Burk; type: biochemical, Escherichia coli; conditions: 2 mM CP fixed, ADP 0-3 mM, 30 mM MgCl2, 20 mM Tris-Cl pH 8, 28 °C, 60 min, 100 nM enzyme
[2] = substrate: NC(=O)OP(=O)(O)O; experiment: as above; type: biochemical, Escherichia coli; conditions: 2 mM ADP fixed, CP 0-3 mM, 30 mM MgCl2, 20 mM Tris-Cl pH 8, 28 °C, 60 min, 100 nM enzyme

B1: YbcF (catabolic carbamate kinase, CK; proposed AllK) (Escherichia coli K-12) (protein)
chain: MKTLVVALGGNALLQRGEALTAENQYRNIASAVPALARLARSYRLAIVHGNGPQVGLLALQNLAWKEVEPYPLDVLVAESQGMIGYMLAQSLSAQPQMPPVTTVLTRIEVSPDDPAFLQPEKFIGPVYQPEEQEALEAAYGWQMKRDGKYLRRVVASPQPRKILDSEAIELLLKEGHVVICSGGGGVPVTDDGAGSEAVIDKDLAAALLAEQINADGLVILTDADAVYENWGTPQQRAIRHATPDELAPFAKADGSMGPNVTAVSGYVRSRGKPAWIGALSRIEETLAGEAGTCISL
Work on B1 yielded a Km [1] of 430 µM and a Km [2] of 470 µM.
